Source: patent US20140120113A1

Columns and labels:
Experiment in all cases: cell-based or functional assay
[1] = target: HA of influenza virus A/Brisbane/10/2007 (H3) (Influenza A virus A/Brisbane/10/2007 (H3))
[2] = target: HA of influenza virus A/Brisbane/59/2007 (H1) (Influenza A virus A/Brisbane/59/2007 (H1))
[3] = target: HA of influenza virus A/Chick/Germany/N/49 (H10) (Influenza A virus A/Chick/Germany/N/49 (H10)) (UniProt P12581)
[4] = target: HA of influenza virus A/Ck/HK/SSP176/09 (H9) (Influenza A virus A/Chick/HK/SSP176/09 (H9))
[5] = target: HA of influenza virus A/EW/MPD411/07 (H6) (Influenza A virus A/Eurasian Wigeon/MPD411/07 (H6))
[6] = target: HA of influenza virus A/EW/MPF461/07 (H5) (Influenza A virus A/Eurasian Wigeon/MPF461/07 (H5))
[7] = target: HA of influenza virus A/EW/MPH571/08 (H8) (Influenza A virus A/Eurasian Wigeon/MPH571/08 (H8))
[8] = target: HA of influenza virus A/Env/MPU3156/05 (H2) (Influenza A virus A/Env/MPU3156/05 (H2))
[9] = target: HA of influenza virus A/Hiroshima/52/2005 (H3) (Influenza A virus A/Hiroshima/52/2005 (H3))
[10] = target: HA of influenza virus A/Hong Kong/1/68 (H3) (Influenza A virus A/Hong Kong/1/68 (H3)) (UniProt Q91MA7)
[11] = target: HA of influenza virus A/Hong Kong/1073/99 (H9) (Influenza A virus A/Hong Kong/1073/99 (H9))
[12] = target: HA of influenza virus A/Johannesburg/33/94 (H3) (Influenza A virus A/Johannesburg/33/94 (H3))
[13] = target: HA of influenza virus A/Panama/2007/1999 (H3) (Influenza A virus A/Panama/2007/1999 (H3))
[14] = target: HA of influenza virus A/WF/MPA 892/06 (H4) (Influenza A virus A/WF/HK/MPA892/06 (H4))

Chain of UniProt P12581 (P12581 17-561 limits assumed): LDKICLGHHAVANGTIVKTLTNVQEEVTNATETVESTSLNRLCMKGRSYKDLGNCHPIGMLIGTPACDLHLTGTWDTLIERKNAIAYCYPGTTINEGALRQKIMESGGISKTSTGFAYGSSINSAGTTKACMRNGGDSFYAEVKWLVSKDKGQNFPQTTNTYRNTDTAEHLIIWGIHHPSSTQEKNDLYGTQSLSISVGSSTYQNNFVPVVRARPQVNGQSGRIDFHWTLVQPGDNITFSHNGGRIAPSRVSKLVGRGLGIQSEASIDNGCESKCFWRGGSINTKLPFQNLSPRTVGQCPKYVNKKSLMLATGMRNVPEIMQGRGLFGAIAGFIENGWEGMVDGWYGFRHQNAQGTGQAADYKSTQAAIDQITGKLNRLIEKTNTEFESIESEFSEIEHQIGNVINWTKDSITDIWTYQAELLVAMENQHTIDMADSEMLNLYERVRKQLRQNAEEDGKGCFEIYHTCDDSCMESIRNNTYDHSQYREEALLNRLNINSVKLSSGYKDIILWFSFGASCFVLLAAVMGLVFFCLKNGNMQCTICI

CR9114 (antibody)
geomean IC50, virus neutralization assay (VNA) [1]: 5.6 µg/mL | geomean IC50, virus neutralization assay (VNA) [2]: 2.6 µg/mL | geomean IC50, virus neutralization assay (VNA) [3]: 15.7 µg/mL | geomean IC50, virus neutralization assay (VNA) [4]: 6.3 µg/mL | geomean IC50, virus neutralization assay (VNA) [5]: 10.5 µg/mL | geomean IC50, virus neutralization assay (VNA) [6]: 10.5 µg/mL | geomean IC50, virus neutralization assay (VNA) [7]: 8.8 µg/mL | geomean IC50, virus neutralization assay (VNA) [8]: 8.8 µg/mL | geomean IC50, virus neutralization assay (VNA) [9]: 12.5 µg/mL | geomean IC50, virus neutralization assay (VNA) [10]: 19 µg/mL | geomean IC50, virus neutralization assay (VNA) [11]: 4.4 µg/mL | geomean IC50, virus neutralization assay (VNA) [12]: 21.9 µg/mL | geomean IC50, virus neutralization assay (VNA) [13]: 39.9 µg/mL | geomean IC50, virus neutralization assay (VNA) [14]: 0.8 µg/mL
